Data on 11 molecules can be found in patent publication US20240034792A1 (HARBOUR BIOMED SHANGHAI, published 2024).

Changes are numbered by the printed parent chain.

Usually EC50 stands for the concentration at which the effect is half-maximal. As usually defined, the IC50 is the point on the concentration scale where inhibition reaches its midpoint.

B1: PR000677 (antibody, human IgG4 S228P, kappa, V domains shown)
VH: QVQLQQSGPGLVKPSQTLSLTCAISGDSVSSNSAAWNWIRQSPSRGLEWLGRTYYRSKWYSDYGISVNSRITVNPDTSKNLFSLQLNPVTPEDTAVYYCTRETHYYGSGSYLDYWSQGTLVTVSS
VL: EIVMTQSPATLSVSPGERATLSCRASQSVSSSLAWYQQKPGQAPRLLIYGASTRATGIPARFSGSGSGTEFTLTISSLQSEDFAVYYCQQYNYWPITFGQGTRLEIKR
notes: Fully human recombinant H2L2 antibody, human IgG4, kappa light chain; also called 4004_33B9E4
B2: PR000673 (antibody, human IgG4 S228P, kappa, V domains shown)
VH: QVQLVESGGGVVQPGRSLRLSCAASGFIFSNYGMHWVRQAPGKGLEWVAVIWYDGSKKYYGDSVKGRFTISRDNSKNTLYLQMNSLRDEDTAVYFCARNDDYWGQGTLVTVSS
VL: EIVLTQSPATLSFSPGERATLSCRASQSVSSDLAWYQQKPGQAPSLLIYDASNRATGIPARFSGSGSGTDFTLTISSLEPEDFAVYYCHQRNNWPLTFGGGTKVEIKR
notes: Fully human recombinant H2L2 antibody, human IgG4, kappa light chain; also called 4004_10H9A12
B3: PR000676 (antibody, human IgG4 S228P, kappa, V domains shown)
VH: QIQLVESGGGVVQPGRSLRLSCAASGFTLSSYGMHWVRQAPGKGLEWVAVILSDGSNKYYADSVKGRFTISRDNSKNTLYLQMNSLRAEDTAVYYCADLGGDVWGQGTTVTVSS
VL: B2 VL with F13L, D32Y, S45R, N53T, H89Q, N92S
notes: Fully human recombinant H2L2 antibody, human IgG4, kappa light chain; also called 4004_1A7A1
B4: PR000675 (antibody, human IgG4 S228P, kappa, V domains shown)
VH: EVQLLESGGGLVQPGGSLRLSCVDSGFTFSSYAMTWVRQAPGKGLEWVSGISGSGYSTYYADSVKGRFTISRDNSKKTLYLQMNSLRAEDTAVYYCAELSLDYWGQGTLVTVSS
VL: B2 VL with F13L, S31R, D32Y, S45R, I48M, Y49H, S52A, I58L, S63N, H89Q
notes: Fully human recombinant H2L2 antibody, human IgG4, kappa light chain; also called 4004_19G8F2
B5: PR000674 (antibody, human IgG4 S228P, kappa, V domains shown)
VH: QVQLVESGGGVVQPGKSLRLSCTVSGLTFSDNGMHWVRQAPGRGLEWMSVIWYDGSKKYYADSVKGRFTISRDNSKNTLYLQMNNMRVEDTAVYYCATNSDYWGQGTLVTVSS
VL: EIVLTQSPATLSLSPGERATLSCRASQSVSSYLAWYQQKPGQAPRLLIYDTSKRATGIPARFSGSGSGTDFTLTISSLEPEDFAVYYCQQHNNWIFTFGPGTKVDIKR
notes: Fully human recombinant H2L2 antibody, human IgG4, kappa light chain; also called 4004_12H9C1
B6: PR000679 (antibody, human IgG4 S228P, kappa, V domains shown)
VH: QVQLVQSGTEVKKPGSSVKVSCKASGGTFSSYAISWVRQAPGQGLEWMGGIIPIFDTVSSAQKFQGRVTITADKSTSTAYMELFSLRSEDTAVYYCARSPPYSSNWYQYFQHWGQGTLVTVSS
VL: DIQMTQSPSTLSASVGDRVTITCRASQTISIWLAWYQQKPGKAPKLLIYKASSLESGVPSRFSGSGSGTEFTLTISSLQPDDFATYYCQQFNSYWTFGQGTKVEIKR
notes: Fully human recombinant H2L2 antibody, human IgG4, kappa light chain; also called 4004_6C11C6
B7: PR005573 (antibody, human IgG1, V domains shown)
VH: EVQLVETGGGLIQPGGSLRLSCAASGFNVSSHYMSWVRQAPGKGREWVSIIDKAGSGYYAASVKGRFTISRDNSKNRLYLQMNSLRAEDTAMYYCARATEVREKNGYNYPFNYWGQGTLVTVSS
notes: no light chain; also called anti-PD1 PR002481R2M3_D1 HCAb hIgG1
B8: PR005574 (antibody, human IgG1, V domains shown)
VH: B7 VH with A61D, N105Q
notes: no light chain; also called anti-PD1 PR002481R2M1_F1 HCAb hIgG1
B9: PR005582 (antibody, human IgG1, V domains shown)
VH: B7 VH with S30A, H32F, G57T, A60G, N105Q
notes: no light chain; also called anti-PD1 PR002481Com_28 HCAb hIgG1
B10: PR005581 (antibody, human IgG1, V domains shown)
VH: B7 VH with H32F, G57T, A60G, N105Q
notes: no light chain; also called anti-PD1 PR002481R2M1_A1 HCAb hIgG1
B11: PR005584 (antibody, human IgG1, V domains shown)
VH: B7 VH with H32F, G57T, A61D, N105Q
notes: no light chain; also called anti-PD1 PR002481Com_30 HCAb hIgG1

T2 sequence (Q15116 25-167 limits assumed): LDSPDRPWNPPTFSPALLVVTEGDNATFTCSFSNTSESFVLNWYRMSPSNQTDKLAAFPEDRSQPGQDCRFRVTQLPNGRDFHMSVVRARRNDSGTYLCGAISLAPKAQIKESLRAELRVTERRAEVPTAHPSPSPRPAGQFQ

The target in one assay is T1, Cynomolgus monkey PD-1 expressed on CHO-K1 cells (CHO-K1/cyno PD-1) (cynomolgus monkey, UniProt B0LAJ3 25-288).
T1 construct: also called CHO-K1 cells overexpressing cynomolgus monkey PD-1
T1 sequence (B0LAJ3 entry or part of it limits assumed): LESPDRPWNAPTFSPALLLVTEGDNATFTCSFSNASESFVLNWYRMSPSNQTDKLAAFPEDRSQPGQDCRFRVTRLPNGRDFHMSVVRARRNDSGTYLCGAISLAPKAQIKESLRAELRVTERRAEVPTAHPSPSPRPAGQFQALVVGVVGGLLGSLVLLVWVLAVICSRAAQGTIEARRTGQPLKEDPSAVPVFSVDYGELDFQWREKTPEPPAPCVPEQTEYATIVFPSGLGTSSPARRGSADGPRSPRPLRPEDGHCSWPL
In words: FACS, CHO-K1/cyno PD-1 cells. Here is the method: (§1) In order to investigate the in vitro binding activity of the PD-1 antigen-binding proteins to human/cynomolgus monkey PD-1, the binding assay at the cellular level was performed using a CHO-K1 cell strain overexpressing human or cynomolgus monkey PD-1 (CHO-K1/hPD-1 or CHO-K1/cyno PD-1, from GenScript). Briefly, the CHO-K1-hPD-1 cells were digested and resuspended in an F-12K complete medium, and the cell density was adjusted to 1×10⁶ cells/mL. The cells were seeded in a 96-well V-bottom plate (Corning, Cat#3894) at 100 μL/well, followed by the addition of the test antigen-binding proteins with concentrations 2-fold of final concentrations obtained by 5-fold gradient dilution were each added at 100 μL/well. The mixtures were well mixed. The maximum final concentration of the antigen-binding proteins was 100 nM or 300 nM. A total of 8-11 concentrations were set. hIgG was used as a control. The cells were incubated at 4° C. for 1 h away from light. Thereafter, the cells in each well were rinsed twice with 100 μL of pre-cooled PBS, and centrifuged at 500 g at 4° C. for 5 min, and then the supernatant was discarded. Then 100 μL of a fluorescent secondary antibody (goat anti-human IgG (H+L) secondary antibody, Alexa Fluor® 488 conjugate, Invitrogen, Cat #A11013, 1:1000) was added to each well. The plate was incubated away from light at 4° C. for 30 min. The cells in each well were rinsed twice with 200 μL of pre-cooled PBS, and centrifuged at 500 g at 4° C. for 5 min, and then the supernatant was discarded. Finally, the cells in each well were resuspended in 200 μL of pre-cooled PBS, and the fluorescence signal values were read using a BD FACS CANTOII.
On the technique in general: Flow cytometry measures light scatter and fluorescence of single cells or particles in a stream.
Take B1: the EC50 came to 2.86 nM and the “MFI Maximum” value amounted to 34500.
For B2, in that order: 2.04 nM and 38200.
For the molecule B3, the EC50 worked out at 8.34 nM and the “MFI Maximum” value came to 39000.
On to B4, for which a half-maximal effect (EC50) was put at 6.91 nM and the “MFI Maximum” value was 36800.
Turning to B5, the EC50 was determined as 2.35 nM and the “MFI Maximum” value amounted to 41200.
The corresponding values for B6 are 1.58 nM and 24800.

The next assay concerns the target T2, Human PD-1-His protein (ACROBiosystems, # PD1-H5221) (human, UniProt Q15116 25-167).
T2 construct: Bought reagent, coated on the ELISA plate; also called human PD-1 protein; human PD-1 antigen; not shown: His tag
In words: ELISA, plate-coated human PD-1-His. As for the experimental part:
Human PD-1-His protein (ACROBiosystems, # PD1-H5221) was diluted to 2 μg/mL with PBS, added to a 96-well plate (Corning, cat#9018) at 100 μL/well, and incubated at 4° C. overnight. After the liquid was discarded, the plate was washed 3 times with PBST buffer (pH 7.4, containing 0.05% Tween-20), and 250 μL of 2% BSA blocking buffer was added. The plate was incubated at 37° C. for 1 h. The blocking buffer was discarded, and the plate was washed 3 times with PBST buffer (pH 7.4, containing 0.05% Tween-20). The test antigen-binding protein was 5-fold diluted in sequence at an initial concentration of 100 nM for a total of 8-10 concentration gradients, and added at 100 μL/well. The plate was incubated at 37° C. for 1 h. An isotype antibody was taken as a control. After the plate was washed 3 times with PBST buffer (pH 7.4, containing 0.05% Tween-20), a 4000-fold diluted goat anti-human HRP secondary antibody (Invitrogen, #A18805) was added. The plate was incubated away from light at 37° C. for 1 h. After the plate was washed 3 times with PBST buffer (pH 7.4, containing 0.05% Tween-20), TMB (Biopanda, # TMB-S-003) was added at 100 μL/well. The plate was left away from light at room temperature for about 5 min. The reactions were terminated by adding 50 μL of stop buffer (BBI life sciences, #E661006-0200) to each well, and the absorbance values at 450 nm (OD450) were measured using a microplate reader (PerkinElemer, #Enspire). The half maximal effective concentration (EC₅₀) was calculated from the measurement results.
For orientation: In an ELISA, binding on a coated surface is turned into a signal by an enzyme label.
In the case of B1, the EC50 was 0.078 nM and the “OD Maximum” value was found to be 3.27.
The corresponding values for B2 are 0.066 nM and 3.09.
Turning to B3, the EC50 was determined as 0.121 nM and the “OD Maximum” value is 3.32.
The corresponding values for B4 are 0.113 nM and 3.31.
Turning to B5, a half-maximal response (EC50) required 0.074 nM and the “OD Maximum” value came out at 3.24.
For B6, in that order: 0.102 nM and 3.31.

Another assay deals with T3, Human PD-1 expressed on CHO-K1 cells (CHO-K1/hPD-1) (human, UniProt Q15116 25-288).
T3 construct: whole, on cells; also called CHO-K1 cells overexpressing human PD-1
T3 sequence (Q15116 25-288): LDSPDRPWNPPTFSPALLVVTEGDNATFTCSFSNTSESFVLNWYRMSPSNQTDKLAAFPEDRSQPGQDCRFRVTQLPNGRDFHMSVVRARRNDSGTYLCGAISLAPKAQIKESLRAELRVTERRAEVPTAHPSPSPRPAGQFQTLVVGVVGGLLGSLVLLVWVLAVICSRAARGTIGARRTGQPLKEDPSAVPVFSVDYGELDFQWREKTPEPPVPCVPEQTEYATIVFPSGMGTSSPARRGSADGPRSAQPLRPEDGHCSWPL
Kind of assay: FACS blocking of biotin-labeled human PD-L1 binding to CHO-K1-hPD-1 cells. Here is the method:
(§2) Briefly, the CHO-K1-hPD-1 cells were digested and resuspended in an F-12K complete medium, and the cell density was adjusted to 1×10⁶ cells/mL. The cells were seeded in a 96-well V-bottom plate (Corning, Cat#3894) at 100 μL/well, followed by the addition of the test antigen-binding proteins with concentrations 2-fold of final concentrations obtained by 3-fold or 5-fold gradient dilution were each added at 100 μL/well. The mixtures were well mixed. The maximum final concentration of the antigen-binding proteins was 100 nM or 300 nM. A total of 8 concentrations were set. hIgG was used as a control. The cells were incubated at 4° C. for 1 h away from light. […] The cells were incubated at 4° C. away from light for 30 min. The cells in each well were rinsed twice with 100 μL of pre-cooled PBS, and centrifuged at 500 g at 4° C. for 5 min, and then the supernatant was discarded. A fluorescent secondary antibody (PE Streptavidin, BD, Cat# 554061, 1:200) was added at 100 μL/well, and the cells were incubated at 4° C. away from light for 30 min. The cells in each well were rinsed twice with 200 μL of pre-cooled PBS, and centrifuged at 500 g at 4° C. for 5 min, and then the supernatant was discarded. Finally, the cells in each well were resuspended in 200 μL of pre-cooled PBS, the fluorescence signal values were read using a BD FACS CANTOII, and the IC₅₀ values were calculated.
Regarding B1, the IC50 turned out to be 3.4 nM and the “Maximum inhibition rate (%)” value worked out at 31.2%.
For the molecule B2, the IC50 was 0.402 nM and the “Maximum inhibition rate (%)” value worked out at 45.6%.
For B3, the IC50 is 25.6 nM and the “Maximum inhibition rate (%)” value was 76%.
For the molecule B4, the IC50 turned out to be 12.4 nM and the “Maximum inhibition rate (%)” value came to 72%.
Turning to B5, the IC50 is 0.769 nM and the “Maximum inhibition rate (%)” value is 66.7%.
The corresponding values for B6 are 0.437 nM and 40.2%.

The target in another assay is T3, Human PD-1 expressed on CHO-K1 cells …. In words: FACS, CHO-K1/hPD-1 cells. As for the experimental part: as §1
As for B1, the EC50 came out at 2.1 nM and the “MFI Maximum” value amounted to 1.87e+06.
As for B2, it took 4.76 nM to reach a half-maximal effect (EC50) and the “MFI Maximum” value amounted to 1.57e+06.
Regarding B3, the EC50 came to 10.2 nM and the “MFI Maximum” value was 2.16e+06.
As for B4, the EC50 worked out at 7.91 nM and the “MFI Maximum” value was 2.29e+06.
Regarding B5, the response was half-maximal at 1.94 nM (EC50) and the “MFI Maximum” value was 2.35e+06.

The target is the same in the next assay. In words: FACS, CHO-K1/hPD-1 cells. This is another data set of the same source.
Consider B7, for which it took 4.73 nM to reach a half-maximal effect (EC50) and the “Maximum (MFI)” value came to 3.08e+06.
Take B8: the EC50 was 3.91 nM and the “Maximum (MFI)” value came to 2.82e+06.
B9: the midpoint of the response, the EC50, lay at 8.62 nM and the “Maximum (MFI)” value stood at 3.3e+06.
In the case of B10, the EC50 is 7.31 nM and the “Maximum (MFI)” value amounted to 3.16e+06.
B11: the midpoint of the response, the EC50, lay at 4.02 nM and the “Maximum (MFI)” value worked out at 3.02e+06.

The target is the same in the next assay. In words: FACS blocking of biotin-labeled human PD-L2 binding to CHO-K1-hPD-1 cells. As for the experimental part: as §2
For B1, the IC50 turned out to be 4.52 nM and the “Maximum inhibition rate (%)” value was 14%.
For B2, in that order: 1.55 nM and 90.3%.
For the molecule B4, the IC50 stood at 19.7 nM and the “Maximum inhibition rate (%)” value amounted to 59.9%.
For B5, in that order: 1.83 nM and 92.7%.
With B6, the IC50 is 3.38 nM and the “Maximum inhibition rate (%)” value was 80.1%.
